# Measurements reported in US20240294650A1 (Alector, published 2024).
# Substitutions are numbered along the chain they refer to.
# T1: recombinant cynomolgus MerTK extracellular domain (cynomolgus, UniProt Q12866 21-505 (human entry))
# T1 construct: also called cyno MerTK ECD; not shown: polyHis or TEVS/Thrombin/murine IgG2a-Fc tag
# T1 chain: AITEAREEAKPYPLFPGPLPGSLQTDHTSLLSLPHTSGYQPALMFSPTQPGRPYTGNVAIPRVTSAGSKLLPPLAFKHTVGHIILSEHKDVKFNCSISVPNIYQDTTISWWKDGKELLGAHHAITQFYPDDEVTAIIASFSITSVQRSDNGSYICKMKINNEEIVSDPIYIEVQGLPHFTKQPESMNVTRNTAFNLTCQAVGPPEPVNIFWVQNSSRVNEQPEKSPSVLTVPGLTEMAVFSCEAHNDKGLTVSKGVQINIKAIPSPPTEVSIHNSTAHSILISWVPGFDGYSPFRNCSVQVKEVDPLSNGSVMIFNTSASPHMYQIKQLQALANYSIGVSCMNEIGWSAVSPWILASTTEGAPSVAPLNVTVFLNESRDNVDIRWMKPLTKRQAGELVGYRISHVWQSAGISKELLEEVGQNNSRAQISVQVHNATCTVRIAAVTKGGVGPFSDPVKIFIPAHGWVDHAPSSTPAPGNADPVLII
# T2: human MerTK (human, UniProt Q12866 21-999)
# T2 construct: endogenous receptor on cells; also called human MerTK endogenously expressed on SK-MEL-5 cells; MerTK on human macrophages
# T2 sequence: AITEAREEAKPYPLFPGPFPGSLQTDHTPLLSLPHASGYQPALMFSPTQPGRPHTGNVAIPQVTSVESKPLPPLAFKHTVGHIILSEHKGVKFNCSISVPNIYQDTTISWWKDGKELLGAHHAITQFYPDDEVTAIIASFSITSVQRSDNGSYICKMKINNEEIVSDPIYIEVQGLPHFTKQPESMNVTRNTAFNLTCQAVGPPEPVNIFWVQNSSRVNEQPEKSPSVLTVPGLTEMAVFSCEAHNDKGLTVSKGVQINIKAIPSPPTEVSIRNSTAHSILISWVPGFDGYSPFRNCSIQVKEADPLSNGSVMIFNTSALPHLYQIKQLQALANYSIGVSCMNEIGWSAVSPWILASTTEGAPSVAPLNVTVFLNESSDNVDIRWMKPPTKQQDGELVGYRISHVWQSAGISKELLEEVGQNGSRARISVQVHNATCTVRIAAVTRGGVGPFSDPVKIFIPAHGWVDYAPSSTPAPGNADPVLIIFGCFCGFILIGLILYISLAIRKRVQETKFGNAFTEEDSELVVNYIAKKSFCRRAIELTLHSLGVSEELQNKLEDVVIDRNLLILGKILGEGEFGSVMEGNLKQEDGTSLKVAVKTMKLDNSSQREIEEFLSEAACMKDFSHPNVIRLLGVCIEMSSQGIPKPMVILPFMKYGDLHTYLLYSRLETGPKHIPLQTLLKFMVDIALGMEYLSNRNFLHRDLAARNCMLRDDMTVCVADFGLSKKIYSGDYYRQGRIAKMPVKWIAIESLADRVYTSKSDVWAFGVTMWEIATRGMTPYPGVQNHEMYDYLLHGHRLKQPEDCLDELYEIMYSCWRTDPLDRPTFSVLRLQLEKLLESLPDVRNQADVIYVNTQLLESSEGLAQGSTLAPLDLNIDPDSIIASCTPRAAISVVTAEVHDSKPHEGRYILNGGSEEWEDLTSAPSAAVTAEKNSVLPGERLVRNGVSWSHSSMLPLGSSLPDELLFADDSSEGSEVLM
# B1: MTK-219 (antibody, human IgG1, V domains shown)
# VH: QVQLQQSGADLMKPGASVKLSCKATGNTFTGYWIEWVKQRPGHGLEWIGEILTGSGSTNYNERFKGKATFTADTSSNTAYMQLSSLTTEDSAIYYCAGSYFTNSWFPYWGQGSLVTVSA
# VL: DIVLTQSPASLAVSLGQRATISCRASESVDSYGNSFMHWYQQKPGQPPKLLIYRAYTLESGIPARFSGSGSRTDFTLTINPVEADDVATYYCQQSNEDPRTFGGGTKLEIK
# B2: MTK-222 (antibody, human IgG1, V domains shown)
# VH: B1 VH with N27Y, T58S, R63K, T74S, Y80F, F101Y, T102S
# VL: B1 VL with A9V, N34S, Y56S, T57S, A84T
# B3: MTK-212 (antibody, human IgG1, V domains shown)
# VH: QVQLQQSGPELVKPGASVKISCKASGYAFSSSWVNWVKQRPGKGLEWIGRIYPGDGDSNYNGNFKGKATLTADKSSNTAYLQLSSLTSEDSAVYFCARKSHFIYYTLDYWGQGTPVTVSS
# VL: DIVMTQSHKFKSTSVGDRVSIACKASQDVGTSVAWYQQKPGKSPKLLIYWASSRHTGVPDRFTGSGSGTDFTLTISNVQSEDLTDYFCQQYSTYPYTFGGGTKLEIK
# B4: MTK-206 (antibody, human IgG1, V domains shown)
# VH: QVQLQQSGAELARPGASVKMSCKASGYTFTSYTMHWVKQRPGQGLEWIGYINPSSGYIKNSQKFKDKATLTADKSSSTAYMQLSSLTSEDSAVYYCARTVYGYYGSSPDYWGQGTTLTVSS
# VL: DIQMTQSPSSLSASLGERVSLTCRASQDIGSNLNWLQQEPDGTIKRLIYATSSLESGVPKRFSGSRSGSDYSLTISSLESEDFVDYYCLQYDSSPWTFGGGTKLEIK
# B5: MTK-220 (antibody, V domains shown)
# VH: EVQLVESGGGLVKPGGSLKLSCAASGFTFSDYGMHWVRQAPEKGLEWVAFISGGSGTIYYEDTVKGRFTISRDNAKNTLFLQMTSLRSEDTAMYYCTRGGNYFDYWGQGTTLTVSS
# VL: NIMLTQSPSSLAVSAGEKVTMTCKSSQSVLYSSNQKNYLAWYQQKPGQSPKLLIYWASTRESGVPDRFTGSGSGTDFTLTISNVQAEDLAVYYCHQYFSSWTFGGGTKLEIK
# B6: MTK-204 (antibody, human IgG1, V domains shown)
# VH: B5 VH with F50Y, G53S, S55T, G56S, T97A, N101L, Y102L
# VL: B5 VL with L4M, T22S, Y55Q, G74E, S82R, N83S
# B7: MTK-202 (antibody, human IgG1, V domains shown)
# VH: EVQLVESGGGLVKPGGSLKLSCAASGFTFSDFGMHWVRQVPEKGLEWVAFISGGSNTIYYTDTVKGRFTISRDNAKNTLFLQMTSLRSEDTAMYYCVRNGNSFAYWGQGTLVTVSA
# VL: B5 VL with L4M, T22N, V84I, V91I, S99F
# B8: MTK-210 (antibody, human IgG1, V domains shown)
# VH: QVQLQQSGPELVKPGASVKISCKASDYEFSRSWMNWVKQRPGKGLEWIGRIYPGDGDTNYNGKFKGKATLTADKSSNTAYMQLNSLTSEDSAVYFCARKGGYYYSISNYFDYWGQGTTLTVSS
# VL: QIVLTQSPAIMSASPGVKVTMTCSASSSVSYMHWYQQKPGSSPRLLIYDTSNLASGVPVRFSGSGSGTSYSLTISRMEAEDAATYYCQQWSSYPPYTFGGGTKLEIK
# Target: T1, recombinant cynomolgus MerTK …
# Assay: SPR Carterra LSA
# Method: Binding kinetics of anti-MerTK IgG1 antibodies of the present disclosure to human, cyno, and murine MerTK were evaluated using a Carterra LSA instrument (Carterra, Salt Lake City, UT). […] A HC200M sensor chip (Carterra) was activated using the single channel flow cell with a 7-minute injection of a 1:1:1 mixture of 100 mM MES pH 5.5, 100 mM sulfo-NHS, 400 mM EDC (all reconstituted in MES pH 5.5; 100 μl of each mixed in vial immediately before running assay). After switching to the multi-channel array flow cell, the antibodies were injected over the activated chip in three 96-spot arrays for 10 minutes each. The remaining unconjugated active groups on the chip were then blocked by injecting 1M Ethanolamine pH 8.5 (Carterra) for 7 minutes using the single channel flow cell. The resulting sensor chip contained three spots for each antibody, at three different densities. Two independent experiments were performed as follows, resulting in an N of between one and six determinations for each antibody. Spots that yielded less than 25 RU of analyte binding were excluded from further analysis.
# After priming with running buffer (HBS-TE, Carterra) with 0.5 mg/ml BSA (Sigma), the immobilized anti-MerTK antibodies were tested for their ability to bind to several forms of recombinant MerTK extracellular domain, including human, cynomolgus, and mouse orthologs as described above. Estimates of affinity were generated by injecting each analyte over the entire antibody array using the single channel flow cell. MerTK analytes were diluted with running buffer, in a series of six, three-fold serial dilutions starting from 1 μM for human and cynomolgus MerTK, and 600 nM for mouse MerTK. Analytes were injected for 5 minutes, and dissociation was followed for 10 minutes. After each analyte injection, antibodies were regenerated with either Protein A/G Elution Buffer (Thermo) with 1M NaCl (Teknova), or with 10 mM Glycine pH 2.5. Three buffer blanks were run between each series (one species per series). Data were processed and analyzed using NextGenKIT high-throughput kinetics analysis software (Carterra).
row,Ratio of KD for Cynomolgus vs Human MerTK [ratio],Binder
1,1.9,B1
2,1,B2
3,18.3,B3
4,24.7,B4
5,2.7,B5
6,2.8,B6
7,4.8,B7
8,1.2,B8

# Target: T2, human MerTK
# Assay: FACS, SK-MEL-5 cells, 10 ug/ml
# Method: To determine whether recombinant anti-human MerTK antibodies of the present disclosure bind to human MerTK endogenously expressed on SK-MEL-5 cells and CHO cells overexpressing mouse MerTK (CHO-muMerTK OE cells), as compared to A375 and parental CHO cells as negative controls, the following experiments were performed. SK-MEL-5 cells, A375 cells, CHO-muMerTK OE cells, and CHO parental cells were plated at 100,000 cells/well. Anti-MerTK antibodies were added to the cells at 10 μg/ml. After 60 minutes on ice, cells were washed and then stained with PE-conjugated goat anti-human IgG antibody (Southern Biotech Cat #2040-09, Birmingham, AL) in the presence of Fc block solution on ice for 30 minutes, and then washed twice with cold FACS buffer (2% FBS in PBS). Mouse anti-human MerTK-PE conjugated (Biolegend, Clone 590H11G1E3) or anti-mouse MerTK-PE conjugated (ThermoFisher, Clone DS5MMER) antibodies were used as positive controls. Stained cells were acquired on a BD FACS Canto II cytometer and the mean fluorescence intensity (MFI) was calculated with FlowJo.
row,MFI [MFI],Binder
1,26800,B1
2,27500,B2
3,8080,B3
4,3270,B4
5,29000,B5
6,33800,B6
7,46100,B7
8,29900,B8

# Target: T1, recombinant cynomolgus MerTK …
# Assay: SPR Carterra LSA, Ab immobilised
# Procedure, shortened: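 Surface plasmon resonance on a Carterra LSA measured affinity of immobilized antibodies for human, cynomolgus or mouse MerTK ectodomain diluted in HBS-TE with 0.5 mg/ml BSA. Analytes flowed over the full array, surfaces were regenerated with Protein A/G Elution Buffer plus 1M NaCl or 10 mM Glycine pH 2.5, and spots binding under 25 RU were discarded before kinetic fitting.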
row,Kd [nM],Binder
1,830,B1
2,130,B2
3,1500,B3
4,3700,B4
5,410,B5
6,680,B6
7,160,B7
8,37,B8
